In patent US20180030149A1 (AVEO PHARMACEUTICALS, published 2018):
Substitutions are numbered along the chain they refer to.

B1: Sh24C05-1 (antibody, human IgG1, kappa)
heavy: not shown
light: DIQMTQSPSSLSASLGERVSLTCRASQEISGYLSWLQQKPDGTIKRLIYAASTLDSGVPKRFSGSRSGSDYSLTIGSLESEDLADYYCLQYDSYPYTFGGGTKLEIKRTVAAPSVFIFPPSDEQLKSGTASVVCLLNNFYPREAKVQWKVDNALQSGNSQESVTEQDSKDSTYSLSSTLTLSKADYEKHKVYACEVTHQGLSSPVTKSFNRGEC
notes: Chimeric: mouse 24C05 variable regions, human IgG1/kappa constant regions; also called Chimeric 24C05
B2: Sh24C05-25 (antibody, human IgG1, kappa, V domains shown)
VH: QVQLVESGGGLVKPGGSLRLSCAASGFTFSDYAMSWIRQAPGKGLEWVSTISDGGTYTYYPDNVKGRFTISRDNAKNSLYLQMNSLRAEDTAVYYCAREWGDYDGFDYWGQGTLVTVSS
VL: DIQMTQSPSSLSASVGDRVTITCRASQEISGYLSWFQQKPGKAPKSLIYAASTLDSGVPSRFSGSGSGTDFTLTISSLQPEDFATYYCLQYDSYPYTFGQGTKLEIKR
notes: Humanized, human IgG1/kappa
B3: Sh24C05-31 (antibody, human IgG1, kappa, V domains shown)
VH: B2 VH
VL: B2 VL with F36Y, S46R, D70E
notes: Humanized, human IgG1/kappa
B4: 11G01 (antibody, mouse IgG1, kappa, V domains shown)
VH: QVQLQQSDAELVKPGASVKISCKVSGYTFTDHIIHWMKQRPEQGLEWIGYIYPRDGYIKYNEKFKGKATLTADKSSSTAYMQVNSLTSEDSAVYFCARGYYYAMDYWGQGTSVTVSS
VL: DVLMTQTPLSLPVSLGDQASISCRSSQSIVHSIGNTYLEWYLQKPGQSPKLLIYKVSNRFSGVPERFSGSGSGTDFTLKISRVEAEDLGVYYCFQGSHVPFTFGSGTKLEIKR
notes: Murine IgG1/kappa, from hybridoma; also called anti-hErbB3 monoclonal antibody 11G01
B5: Sh24C05-17 (antibody, human IgG1, kappa, V domains shown)
VH: B2 VH with L11V, K13Q, G16R, I37V, S49A, A75S, S78T, N84S
VL: B2 VL with F36L, K42G, P44I, S46R, T69S, F71Y
notes: Humanized, human IgG1/kappa
B6: Sh24C05-44 (antibody, human IgG1, kappa)
heavy: not shown
light: DIQMTQSPSSLSASVGDRVTITCRASQEISGYLSWYQQKPGKAPKLLIYAASTLDSGVPSRFSGSGSGTDFTLTISSLQPEDFATYYCLQYDSYPYTFGQGTKLEIKRTVAAPSVFIFPPSDEQLKSGTASVVCLLNNFYPREAKVQWKVDNALQSGNSQESVTEQDSKDSTYSLSSTLTLSKADYEKHKVYACEVTHQGLSSPVTKSFNRGEC
notes: Humanized, human IgG1/kappa
B7: Sh24C05-48 (antibody, human IgG1, kappa)
heavy: not shown
light: B6 light
notes: Humanized, human IgG1/kappa
B8: Sh24C05-38 (antibody, human IgG1, kappa)
heavy: not shown
light: B6 light with M4L, S10F, D70E
notes: Humanized, human IgG1/kappa
B9: Sh24C05-46 (antibody, human IgG1, kappa, V domains shown)
VH: B2 VH with Q1E, V5L, K13Q, I37V, A75S, S78T
VL: B2 VL with F36Y, S46L
notes: Humanized, human IgG1/kappa
B10: Sh24C05-40 (antibody, human IgG1, kappa, V domains shown)
VH: B2 VH with Q1E, V5L, K13Q, I37V, A75S, S78T
VL: B2 VL with M4L, S10F, F36Y, S46L, D70E
notes: Humanized, human IgG1/kappa
B11: Sh24C05-39 (antibody, human IgG1, kappa, V domains shown)
VH: B2 VH with Q1E, I37V
VL: B2 VL with M4L, S10F, F36Y, S46L, D70E
notes: Humanized, human IgG1/kappa
B12: Sh24C05-37 (antibody, human IgG1, kappa, V domains shown)
VH: B2 VH
VL: B2 VL with F36Y, S46L, L73F, F83I
notes: Humanized, human IgG1/kappa
B13: Sh24C05-41 (antibody, human IgG1, kappa, V domains shown)
VH: B2 VH with L11V, K13Q, G16R, I37V, S49A, A75S, S78T, N84S
VL: B2 VL with M4L, S10F, F36Y, S46L, D70E
notes: Humanized, human IgG1/kappa
B14: Sh24C05-47 (antibody, human IgG1, kappa, V domains shown)
VH: B2 VH with L11V, K13Q, G16R, I37V, S49A, A75S, S78T, N84S
VL: B2 VL with F36Y, S46L
notes: Humanized, human IgG1/kappa
B15: Sh24C05-42 (antibody, human IgG1, kappa)
heavy: not shown
light: B6 light with M4L, S10F, D70E
notes: Humanized, human IgG1/kappa
B16: Sh24C05-43 (antibody, human IgG1, kappa, V domains shown)
VH: B2 VH
VL: B2 VL with M4L, S10F, F36Y, S46L, D70E
notes: Humanized, human IgG1/kappa
B17: Sh24C05-49 (antibody, human IgG1, kappa, V domains shown)
VH: B2 VH
VL: B2 VL with F36Y, S46L
notes: Humanized, human IgG1/kappa

target: T1, recombinant human ErbB3 monomeric protein (cleaved rhErbB3) (human, UniProt P21860 20-643, limits assumed); experiment: SPR Biacore 37 C; purified antibody captured on anti-human Fc, cleaved rhErbB3 0.3125-5.0 nM
T1 construct: Monomer made by protease cleavage of the Fc fusion; also called Monomeric ErbB3
Method: (§1) The analyses were performed at 37° C. using PBS (Invitrogen, Catalog No. 14040-133) containing 0.05% surfactant P20 (Biacore, Catalog No. BR-1000-54) as running buffer.
(§2) The antibodies were captured in individual flow cells at a flow rate of […]. Injection time was varied for each antibody to yield an Rₘₐₓ between 30 and 60 RU. […] The dissociation phase was monitored for up to 1200 seconds. The surface was then regenerated with two 60 second injections of Glycine pH 2.25 (made from Glycine pH 2.0 (Biacore, Catalog No. BR-1003-55) and pH 2.5 (Biacore, Catalog No. BR-1003-56)) at […].
The binding affinities and kinetics of certain purified monoclonal antibodies were also determined. To further characterize certain antibodies, the surface plasmon resonance experiments described above were conducted using concentrations of cleaved rhErbB3 between 0.3125 nM and 5.0 nM (a 2-fold serial dilution).

| Kd | koff | kon | Binder |
| --- | --- | --- | --- |
| 0.14 nM | 0.00044 s⁻¹ | 3.5e+06 M⁻¹ s⁻¹ | B1 |
| 0.13 nM | 0.0005 s⁻¹ | 4e+06 M⁻¹ s⁻¹ | B2 |
| 0.063 nM | 0.00028 s⁻¹ | 4.7e+06 M⁻¹ s⁻¹ | B3 |

target: T2, human ErbB3 (human, UniProt P21860 20-1342); experiment: cell-based or functional assay

| IC50, NRG1-β1 dependent proliferation of MCF7 cells (MTT) | Binder |
| --- | --- |
| 1.98 nM | B4 |

target: T3, recombinant human ErbB3/Fc fusion protein (human, UniProt P21860 20-643); experiment: SPR Biacore T100, 25 C; antibody captured on anti-mouse IgG, rhErbB3-Fc injected
T3 construct: Bought (R&D Systems, Cat. No. 348-RB); the NRG1-α1 assay names Cat. No. 4518-RB instead; also called rhErbB3-Fc; rhErbB3/Fc; not shown: Fc portion of the bought fusion protein
Method: Rabbit anti-mouse IgGs (Biacore, Cat. No. BR-1008-38) were immobilized on carboxymethylated dextran CM4 sensor chips (Biacore, Cat. No. BR-1005-34) by amine coupling (BIAcore, Cat. No. BR-1000-50) using a standard coupling protocol according to vendor's instructions. The analyses were performed at 25° C., using PBS (Invitrogen, Cat. No. 14040-133) containing 0.05% surfactant P20 (Biacore, Cat. No. BR-1000-54) as running buffer.
The antibodies were captured in individual flow cells at a flow rate of 10 μl/minute. Injection time was varied for each antibody to yield an Rₘₐₓ between 30 and 60 RU. […] The dissociation phase was monitored for up to 3600 seconds. The surface was then regenerated with two 60-seconds injection of 10 mM Glycine-HCl, pH 1.7 (made from Glycine pH 1.5 (Biacore, Cat. No. BR-1003-54) and pH 2.0 (Biacore, Cat. No. BR-1003-55)) at a flow rate of […].
(§3) Kinetic parameters were determined using the kinetic function of the BIAevaluation software (Biacore) with double reference subtraction. Kinetic parameters for each antibody, kₐ (association rate constant), kd (dissociation rate constant) and KD (equilibrium dissociation constant) were determined.

| Kd | koff | kon | Binder |
| --- | --- | --- | --- |
| 0.091 nM | 2.2e-05 s⁻¹ | 270000 M⁻¹ s⁻¹ | B4 |

target: T1, recombinant human ErbB3 monomeric …; experiment: SPR Biacore 37 C; supernatant antibody captured on anti-human Fc, cleaved rhErbB3 injected
Method: as §1, §2, §3

| Kd | koff | kon | Binder |
| --- | --- | --- | --- |
| 0.178 nM | 0.000448 s⁻¹ | 2.52e+06 M⁻¹ s⁻¹ | B1 |
| 0.175 nM | 0.000459 s⁻¹ | 2.63e+06 M⁻¹ s⁻¹ | B2 |
| 0.15 nM | 0.000417 s⁻¹ | 2.79e+06 M⁻¹ s⁻¹ | B5 |
| 0.644 nM | 0.00512 s⁻¹ | 7.96e+06 M⁻¹ s⁻¹ | B6 |
| 0.562 nM | 0.0049 s⁻¹ | 8.72e+06 M⁻¹ s⁻¹ | B7 |
| 0.567 nM | 0.0154 s⁻¹ | 2.71e+07 M⁻¹ s⁻¹ | B8 |
| 0.551 nM | 0.0044 s⁻¹ | 7.99e+06 M⁻¹ s⁻¹ | B9 |
| 0.503 nM | 0.0106 s⁻¹ | 2.11e+07 M⁻¹ s⁻¹ | B10 |
| 0.819 nM | 0.00967 s⁻¹ | 1.18e+07 M⁻¹ s⁻¹ | B11 |
| 0.374 nM | 0.002 s⁻¹ | 5.94e+06 M⁻¹ s⁻¹ | B12 |
| 0.669 nM | 0.0121 s⁻¹ | 1.81e+07 M⁻¹ s⁻¹ | B13 |
| 0.0865 nM | 0.000292 s⁻¹ | 3.47e+06 M⁻¹ s⁻¹ | B3 |
| 0.553 nM | 0.00441 s⁻¹ | 7.98e+06 M⁻¹ s⁻¹ | B14 |
| 0.927 nM | 0.00682 s⁻¹ | 7.35e+06 M⁻¹ s⁻¹ | B15 |
| 0.582 nM | 0.00358 s⁻¹ | 6.16e+06 M⁻¹ s⁻¹ | B16 |
| 0.416 nM | 0.0017 s⁻¹ | 4.08e+06 M⁻¹ s⁻¹ | B17 |

target: T2, human ErbB3; experiment: cell-based or functional assay; remark: another data set of the same source

| inhibition of NRG1-β1 induced phosphorylation of Akt in MCF7 and DU145 cells (ELISA) | inhibition of NRG1-β1 induced phosphorylation of ErbB3 in SKBR-3 cells (ELISA, 5 µg/ml antibody) | Binder |
| --- | --- | --- |
| ≥ 80% | ≥ 50% | B4 |
